Read-outs that look alike come from different tables or passages of the source.
Legend:
Assay in all cases: ELISA
[1] = biological target: T1, GST-HttExon1Q21 (recombinant huntingtin exon 1 protein with 21 polyQ repeats fused to an N-terminal GST tag) (;human, UniProt P08515 1-218 = GST; P42858 1-88)
[2] = biological target: T2, HD49 (huntingtin exon 1 protein with 49 polyQ repeats after cleavage of the GST tag; aggregation reaction) (human, UniProt P42858 1-88)
T2 chain: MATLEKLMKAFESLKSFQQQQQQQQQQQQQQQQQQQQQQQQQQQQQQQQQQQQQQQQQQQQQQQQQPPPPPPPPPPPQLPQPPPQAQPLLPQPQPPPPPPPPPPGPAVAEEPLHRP

[3] = biological target: T3, HD21 (huntingtin exon 1 protein with 21 polyQ repeats after cleavage of the GST tag; aggregation reaction) (human, UniProt P42858 1-88)
T3 chain: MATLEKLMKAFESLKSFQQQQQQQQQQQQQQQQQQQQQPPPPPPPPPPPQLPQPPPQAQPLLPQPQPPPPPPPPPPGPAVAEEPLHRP

[4] = biological target: T1, GST-HttExon1Q21 (recombinant huntingtin …); remark: listed apart in the source
[5] = biological target: T2, HD49 (huntingtin exon 1 protein with 49 …)
[6] = biological target: T3, HD21 (huntingtin exon 1 protein with 21 …)
[7] = biological target: T1, GST-HttExon1Q21 (recombinant huntingtin …); remark: listed apart in the source
[8] = biological target: T2, HD49 (huntingtin exon 1 protein with 49 …)
[9] = biological target: T3, HD21 (huntingtin exon 1 protein with 21 …)
[10] = biological target: T1, GST-HttExon1Q21 (recombinant huntingtin …); remark: listed apart in the source
Target sequence in this assay (P08515 1-218, tags or fused parts left off): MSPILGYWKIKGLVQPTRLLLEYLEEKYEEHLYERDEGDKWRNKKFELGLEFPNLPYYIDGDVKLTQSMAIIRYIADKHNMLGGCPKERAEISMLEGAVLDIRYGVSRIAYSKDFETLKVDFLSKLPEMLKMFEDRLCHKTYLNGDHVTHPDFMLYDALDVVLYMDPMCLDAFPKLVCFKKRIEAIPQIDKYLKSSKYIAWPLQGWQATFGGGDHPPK

[11] = biological target: T4, BSA-coupled synthetic peptide of the P-rich domain sequence of huntingtin exon 1 (coupled to BSA)
T4 peptide: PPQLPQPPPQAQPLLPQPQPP

[12] = biological target: T2, HD49 (huntingtin exon 1 protein with 49 …)
[13] = biological target: T3, HD21 (huntingtin exon 1 protein with 21 …)
[14] = biological target: T1, GST-HttExon1Q21 (recombinant huntingtin …); remark: listed apart in the source
[15] = biological target: T2, HD49 (huntingtin exon 1 protein with 49 …)
[16] = biological target: T3, HD21 (huntingtin exon 1 protein with 21 …)
[17] = biological target: T1, GST-HttExon1Q21 (recombinant huntingtin …); remark: listed apart in the source
[18] = biological target: T2, HD49 (huntingtin exon 1 protein with 49 …)
[19] = biological target: T3, HD21 (huntingtin exon 1 protein with 21 …)

B1: NI-302.22H9 (antibody, V domains shown)
VH: EVQLVESGGGLVHPWGSLRVSCAASGFSVSNYAITWVRQAPGKGLEYISVIYRDGRTYYGDSVRGRFTISRDDSKNTIYLQMNSLRFEDTAVYYCARAHGQYYYGVDVWGQGTTVTVSS
VL: DVVMTQSPLSLSVSPGEPASISCRSSQSLLHSNGYNYLDWYRQKPGQSPQLLIYLNSNRASGVPDRFSGSGSGTEFTLTISRVEAEDVGVYYCMQSLQTFTFGGGTKVEIK
How did the EC50 [1] turn out when B1 was run?
Its EC50 is 1.6 nM.

And the EC50 [2]?
Its EC50 is 21 nM.

What about the EC50 [3] of the same binder?
The EC50 was 11 nM.

And the EC50 [4]?
Its EC50 is 1.6 nM.

What about the EC50 [5] of the same binder?
The EC50 was 22 nM.

What about the EC50 [6] of the same binder?
Its EC50 is 11 nM.

B2: NI-302.15D3 (antibody, V domains shown)
VH: EVQLVESGGDLVQPGGSLRLSCAASGFTFSSYWMHWVRQAPGKGLVWVSRISNDGSSKTYADSVKGRFTISRDNAKNTLYLQMNSLRAEDTAVYYCAILGGYCSSTSCRPFDNWGQGTLVTVSS
VL: QSALTQPASVSGSPGQSITISCTGTSSDVGVYNYVSWYQQHPGKAPKLMIFDVSNRPSGISNRFSGSKSGNTASLTISGLQAEDEADYYCSSYTSSDTWVFGGGTKLTIL
How did the EC50 [7] turn out when B2 was run?
Its EC50 is 4.2 nM.

What about the EC50 [8] of the same binder?
The EC50 was 15 nM.

What about the EC50 [9] of the same binder?
The EC50 was 6.4 nM.

What about the EC50 [10] of the same binder?
The EC50 was 4.2 nM.

What about the EC50 [11] of the same binder?
The EC50 was 1.2 nM.

And the EC50 [12]?
The EC50 was 15 nM.

And the EC50 [13]?
The EC50 was 6.4 nM.

B3: NI-302.37C12 (antibody, V domains shown)
VH: EVQLVESGGGLVQPGGSLRLSCVASALTVTNSQMTWVRRAPGRGLEWVSVIYTSGSAYYADSVKGRFTISRDNSKNTVFLQMNSLRVEDTAVYYCAKGPSAYYYGLDLWGQGTTVTVSS
VL: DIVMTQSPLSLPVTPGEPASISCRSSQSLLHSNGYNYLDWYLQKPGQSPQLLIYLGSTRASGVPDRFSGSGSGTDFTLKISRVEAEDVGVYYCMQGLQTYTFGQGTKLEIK
B3 was tested. Which EC50 [1] did it give?
The EC50 was 0.3 nM.

What about the EC50 [2] of the same binder?
Its EC50 is 4.9 nM.

What about the EC50 [3] of the same binder?
The EC50 was 2.5 nM.

And the EC50 [4]?
Its EC50 is 0.33 nM.

What about the EC50 [5] of the same binder?
Its EC50 is 4.9 nM.

And the EC50 [6]?
The EC50 was 2.5 nM.

B4: NI-302.2A2 (antibody, V domains shown)
VH: EVQLVESGGGLVQPGGSLRLSCAASGFTFSTYWMNWVRQAPGKGLEWVANIKPDGSDKYYVDSVKGRFTISRDNAKNSLYLQMNSLRDEDTAVYYCARGDGSGWNVYWGQGTLVTVSS
VL: DIQMTQSPDSLAVSLGERATINCKSSQSLLYTSKNKDSKNYLGWYQQKPGQPPKLLIYWASTRESGVPDRFSGSGSGTDFTLTISSLQAEDVAVYYCQQYYTTPQFGGGTKVEIK
With B4 as the binder, how does the EC50 [7] read?
The EC50 was 10.1 nM.

And the EC50 [8]?
Its EC50 is roughly 100 nM.

And the EC50 [9]?
The EC50 was 12.3 nM.

And the EC50 [10]?
The EC50 was 10.1 nM.

What about the EC50 [11] of the same binder?
The EC50 was 1.4 nM.

And the EC50 [12]?
The EC50 was greater than 100 nM.

And the EC50 [13]?
The EC50 was 12.3 nM.

B5: NI-302.3D8 (antibody, V domains shown)
VH: EVQLVQSGGGLVQPGGSLRLSCEASGFIFKTYAMSWVRQLPGRGLEWVSAISATGGSTFYAESVKGRLTISRDTAKNTVYLQMNNLRAEDTAMYYCAKGSTAVYLFDSWGQGTLVTVSS
VL: DIQMTQSPSSLSASVGDRVTLTCRASQDIRNFLAWIQQKPGKPPKSLIYAASTLQSGVPSRFSGSGSGTDFTLTISSLHPEDFATYYCQQFYNYPPTFGQGTKVEIK
For B5, which EC50 [14] is on record?
The EC50 was 0.05 nM.

And the EC50 [15]?
Its EC50 is 0.03 nM.

And the EC50 [16]?
Its EC50 is 0.02 nM.

What about the EC50 [4] of the same binder?
Its EC50 is 0.05 nM.

What about the EC50 [5] of the same binder?
Its EC50 is 0.03 nM.

And the EC50 [6]?
The EC50 was 0.02 nM.

B6: NI-302.71F6 (antibody, V domains shown)
VH: QVQLQQWGAGLLKPSETLSLTCAVYGGSLSGYYWSWIRQPPGKGLEWIGEVNHSGGTNLNSSLKSRVIISVDKSKKQFSLKLSSVTAADTAMYFCARGYSYDPKYYFDSWSQGTLVTVSS
VL: QSALTQPASVSGSPGQAITISCTGTSSDIGSYDFVSWYQQDPGKAPKVIIYGVNKRPSGVSNRFSGSKSGNTASLTISGLQADDEADYYCCSYAGSTTWVFGGGTKLTVL
With B6 as the binder, how does the EC50 [14] read?
The EC50 was 3 nM.

What about the EC50 [15] of the same binder?
Its EC50 is 4.4 nM.

And the EC50 [16]?
Its EC50 is 7.6 nM.

And the EC50 [4]?
The EC50 was 3 nM.

What about the EC50 [5] of the same binder?
The EC50 was 4.4 nM.

And the EC50 [6]?
Its EC50 is 7.6 nM.

B7: NI-302.44D7 (antibody, V domains shown)
VH: EVQLVQSGGGLVQPGGSLRLSCAASGFTFSSYAMSWVRQAPGKGLEWVSGIGYSDTSTYYADSVKGRFTVSRDISKNTLYLQMNSLRAEDTAVYYCAKGTRDYYGMDVWGQGTMVTVSS
VL: QTVVTQEPSFSVSPGGTVTLTCGLSSGSVSTSYYPSWYQQTPGRAPRTLIYSTNTRSSGVPDRFSGSILGNKAALTITGAQADDESDYYCVLFMGSGIGVFGGGTRLTVL
Which results are given for B7?
EC50 [1]: 5.4 nM; EC50 [2]: 10 nM; EC50 [3]: 11 nM; EC50 [4]: 5.4 nM; EC50 [5]: 10 nM; EC50 [6]: 11 nM

B8: NI-302.46C9 (antibody, V domains shown)
VH: QVQLQESGPGLVKPSQTLSLTCTVSGASVSSGAYYWSWIRQPAGKRLEWIGRVYPTWSTNYNPSLESRVTISLDTSNNQFSLKLTSLTAADTAVYYCAREAPGDYDAAPLAYWGQGTLVTVSS
VL: DIQMTQSPSSLSASVGDRVTITCRASQYISHYLNWYRQKPGKAPQLVIYAASSLQSEVPSRFSGSGSGPEFTLTISSLQPEDFATYYCQQSYTTPRTFGQGTKLEIK
Which results are given for B8?
EC50 [4]: 0.07 nM; EC50 [5]: 0.05 nM; EC50 [6]: 0.3 nM; EC50 [7]: ~0.07 nM; EC50 [8]: ~0.05 nM; EC50 [9]: 0.3 nM

B9: NI-302.11H6 (antibody, V domains shown)
VH: EVQLVQSGAVMKKPGDSVRVSCRASTYSFSTYSFTWVRQVPGQGLEWMGWISAYNGHTNYVDSFQGRLTLTTDTSASTAYMELRSLRSDDTAIYYCAAVDTTYYYYGMDVWGQGTLVTVSS
VL: QTVVTQEPTFSVSPGGTVTLTCALRFGSVSSSYYPSWFQQTPGQAPRTLIYSTNTRSSGVPARFSGSILGNKAALTIAGAQANDEADYYCVLYMGSGIGVFGGGTKLTVL
Which EC50 [14] does the source give for B9 here?
The EC50 was 0.24 nM.

And the EC50 [15]?
Its EC50 is 0.16 nM.

And the EC50 [16]?
Its EC50 is 1.22 nM.

And the EC50 [4]?
The EC50 was 0.2 nM.

And the EC50 [5]?
The EC50 was 0.2 nM.

What about the EC50 [6] of the same binder?
The EC50 was 1.2 nM.

B10: NI-302.78H12 (antibody, V domains shown)
VH: QVQLQESGPGLVKPSETLSLTCLVSSYSISNGYYWGWIRQPPGKGLEWIGSIYHNGNTYYNPSLKSRVIISVDTSKNQFSLKLRSVTAADTAVYYCAMPSATYYYGSGTQFHAFDVWGQGTTVTVSS
VL: QSALTQPRSVSGSPGQSVTISCTGTSRDVGNYNYVSWYQQHPGEVPKLIIYDVSERPSGVPDRFSGSKSGNTASLTISGLQAEDEADYYCCSYAGSYTFEVFGGGTKLTVL
B10 was tested. Which EC50 [4] did it give?
The EC50 was 0.5 nM.

What about the EC50 [5] of the same binder?
The EC50 was 1.6 nM.

And the EC50 [6]?
Its EC50 is 1.1 nM.

What about the EC50 [17] of the same binder?
The EC50 was 0.5 nM.

And the EC50 [18]?
Its EC50 is 1.6 nM.

And the EC50 [19]?
The EC50 was 1.1 nM.

B11: NI-302.7A8 (antibody, V domains shown)
VH: EVQLVESGGGSVQPGGSLRLSCVASGFIFRNSWMTWVRQDPGKGLEWVANIKEDGSRTYYVDSVKGRFTISRDNAKNSLYLQMNSLRAEDTAVYYCARGDYNSGIYYFPGDYWGQGTLVTVSS
VL: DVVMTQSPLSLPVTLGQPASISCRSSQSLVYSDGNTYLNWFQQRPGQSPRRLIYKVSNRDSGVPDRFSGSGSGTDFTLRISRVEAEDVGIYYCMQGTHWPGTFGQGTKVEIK
B11 was tested. Which EC50 [4] did it give?
The EC50 was 0.2 nM.

And the EC50 [5]?
Its EC50 is 1.5 nM.

What about the EC50 [6] of the same binder?
The EC50 was 0.4 nM.

And the EC50 [17]?
The EC50 was 0.2 nM.

What about the EC50 [18] of the same binder?
The EC50 was 1.5 nM.

And the EC50 [19]?
Its EC50 is 0.4 nM.

— patent publication US20170166631A1 (published 2017)
